Test results: the supplement of paper PMC9170038

System: MS2 coat protein
Assay: apparent KD of MS2 coat protein; designed switch direction (-1 OFF switch, 1 ON switch): -1; higher = weaker reporter binding
Procedure, shortened: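 Designed RNA switches were transcribed on Illumina chips by stalled E. coli RNA polymerase and titrated with SNAP-549-labelled MS2 coat protein from 0.7 or 1.5 nM, doubling to 3 µM. Step length ran from 0.8–1.5 h at the lowest concentration to 10–20 min at the highest. The apparent KD is the median over clusters for each design, from curve-fitted normalised cluster fluorescence.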

[1] = input ligand: microRNA oligo, concentration not stated
[2] = Eterna round: R95, input ligand: microRNA oligo, concentration not stated
[3] = Eterna round: R95, input ligand: FMN 200 uM
[4] = Eterna round: R95, input ligand: none

Sequence	apparent KD of MS2 coat protein (input ligand: FMN 200 uM) [nM]	apparent KD of MS2 coat protein [1] [nM]	apparent KD of MS2 coat protein (input ligand: none) [nM]	apparent KD of MS2 coat protein [2] [nM]	apparent KD of MS2 coat protein [3] [nM]	apparent KD of MS2 coat protein [4] [nM]
CCUAGUUGGUAAGGAUAUCCUACACUGUUCUGACCCGUGCAAGCUACAUGAGGAUCACCCAUGUGGGAGAAGGUGCGUCAACGC [Design 12] (Eterna round: R96, puzzle: Exclusion NG 2)	29	25.3	29.2	–	–	–
CCUAUGUGAGGAUAUGGUGUUGGCCACAAGGAAAAGCUCCUCCAGAAGGCACAUGAGGAUCACCCAUGUCGUGG [Jolly's Folly 25 - Jieux - Exclusion 4] (Eterna round: R96, puzzle: Exclusion 4)	212	48.2	61.1	–	–	–
CCUCAUGGGCAGGAUAUCAGUCGAAAGUUUAUAUGAGAAGGGCCAACAUGAGGAUCACCCAUGUAAUCCCUGAC [EX6 C.14] (Eterna round: R97, puzzle: Exclusion 6)	66.7	–	27.8	–	–	–
CCUCUACAUGAGGAUCACCCAUGUGAGGAUAUAGACCGGCCUAACGCGGGCUCGGGAGCUAGAAGGCACAUAGA [EX1 C.7] (Eterna round: R97, puzzle: Exclusion 1)	70.8	–	21.8	–	–	–
CCUCUACAUGAGGAUCACCCAUGUGAGGAUAUCUCGGAACAACCACUUAAGGCACUCCAGAGAAGGCACGUGUA [Onsote] (puzzle: Exclusion 1)	–	–	–	15.5	–	–
CCUUAAAUUGUAAGGAUAUUAAAGCUGCUGAGUUAUAAGAAGGUACAUGAGGAUCACCCAUGUUCGGCAGGGUC [Qulexeri] (puzzle: Brourd's mod of Exclusion 4)	–	–	–	17.1	–	–
CCUUAGGGAGGAUAUACAUGAGGAUCACCCAUGUACCGCGGCGCGUUCACACGGGUGGGUAGAAGGCCCUCACU [Colors] (Eterna round: R97, puzzle: Exclusion 3)	463	–	540	–	–	–
CCUUAGUAAGGAUAUCAGCUUAUAGAGUUGGUAAUGAGAGCUGAGAAGGUACAUGAGGAUCACCCAUGUUAGUU [JL Zatite mod 4] (puzzle: Exclusion 4)	–	–	–	20.3	–	–
CCUUGACAUGAGGAUCACCCAUGUGAGGAUAUCCUGCGAGGAUCAAAAGAUCCUCGUGGGAGAAGGCAUAUGAA [Omei Ex1 A7] (Eterna round: R97, puzzle: Exclusion 1)	32.6	–	16.7	–	–	–
CCUUGACAUGAGGAUCACCCAUGUUAGGAUAUAACAUUUGACACUACAGUAUGAAGUGUUAGAAGGGAUAUGGG [-22.5, -21 kcal, A 32%] (Eterna round: R97, puzzle: Exclusion 1)	39.4	–	29.8	–	–	–
CCUUGUGUUGAGGAUAUGCGCCGGCUCGCUGGCGCAGAAGGCGGCACAUGAGGAUCACCCAUGUCAGUUCGCGU [salish99_ex6_r004_014] (Eterna round: R97, puzzle: Exclusion 6)	431	–	29.8	–	–	–
CCUUUGUCAGGAUAUCGAAAAGGGAGGCCAAAGGCCUCCGGUGAGAAGGGACAUGAGGAUCACCCAUGUGAAAA [Soonbidibe] (puzzle: Exclusion 4)	–	–	–	57.5	–	–
CCUUUGUGAGGAUAUCGUUGGCCAGACAUGAGGAUCACCCAUGUGGCUGGAACUCAUGGACGAGAAGGCACCUCUU [Eternabot (L2) Solution 52] (Eterna round: R97, puzzle: Exclusion 5)	338	–	399	–	–	–
CGAAAGUUAGGAUAUGCCCGGAACGACAUGAGGAUCACCCAUGUUAGCAAGGGACCUGGCGCAGAAGGAACGGAUA [EX5 C.20] (Eterna round: R97, puzzle: Exclusion 5)	20.2	–	19.3	–	–	–
CGAAGUAGAAACCGAUCCUACAUGAGGAUCACCCAUGUAGCAAGACGUGCACGCGAAGCUCGUCAGACUACCAGAAA [salish99_TOv1_r3_016] (puzzle: Sensor v3, turn-off variant 1)	–	–	–	213	200	304
CGACCACAUGUAAACUGACACAUGAGGAUCACCCAUGUCAAGCUACGUUAGACUAAGCUCGCUACUACUCGUCUUAA [Eternabot (L2) Solution 4] (Eterna round: R97, puzzle: Sensor, turn-off variant 1)	66.8	–	69.8	–	–	–
CGAGCUCAUGUGAGGAUAUACCUAUGGAUACAUAGGUAGAAGGCACAUGAGGAUCACCCAUGUCCUAGAGCUCG [jl-bmx4-4.58] (Eterna round: R97, puzzle: Brourd's mod of Exclusion 4)	821	–	138	–	–	–

Sequence	apparent KD of MS2 coat protein (input ligand: FMN 200 uM) [nM]	apparent KD of MS2 coat protein [1] [nM]	apparent KD of MS2 coat protein (input ligand: none) [nM]	apparent KD of MS2 coat protein [2] [nM]	apparent KD of MS2 coat protein [3] [nM]	apparent KD of MS2 coat protein [4] [nM]
CGAGGUAGAGGAUAUACGUGGAUGUAAAUUCAUGUUAAUCUACAUGAGGAUCACCCAUGUAGAAGGCUAUAGCG [JR_Ex2_Sub076] (Eterna round: R97, puzzle: Exclusion 2)	27.8	–	30.6	–	–	–
CGAUGCAAAGUAAGGAUAUGCUUCCGGAAACGGAGGCAGAAGGUACAUGAGGAUCACCCAUGUUAAAAGCAUCG [Explosion 3 - Jieux - Brourd's mod of Exclusion 4] (Eterna round: R97, puzzle: Brourd's mod of Exclusion 4)	16.3	–	14.2	–	–	–
CGAUGCUCGAAUCCACAUGAGGAUCACCCAUGUCGAGUUAGCGAGGAUAUCGGUGACACAUAGUAUGAGAAGGCGCGAACCUGA [Ex NG3 #24] (Eterna round: R96, puzzle: Exclusion NG 3)	103	28	41.7	–	–	–
CGAUGUUAUGUCAGGAUAUGCGUUGCGAAAGCAAUGUAGAAGGGACAUGAGGAUCACCCAUGUGCUAACCAUCG [Omei A 10] (puzzle: Brourd's mod of Exclusion 4)	–	–	–	17.2	–	–
CGCAAAACCGUAAGGAUAUCCUUUCCGAAAGGGACGGAGAAGGUACAUGAGGAUCACCCAUGUCCUCCGAGCUG [Eternabot (Original) Solution 18] (Eterna round: R97, puzzle: Brourd's mod of Exclusion 4)	20.6	–	18	–	–	–
CGCAUGUGAGGAUAUUAGUAGUAGUCAGAAAAGACUAUUACUGAGAAGGUACAUGAGGAUCACCCAUGUAUCCG [Mat - Exclusion 4 - Eli Mod - D46] (Eterna round: R97, puzzle: Exclusion 4)	25.7	–	13.9	–	–	–
CGCCGAGUGUUAGGAUAUUACAAGCAUAAGCGGUAAGAAGGAACAUGAGGAUCACCCAUGUACUGUCCCAUCGGGACAGGUUUC [Qule] (Eterna round: R96, puzzle: Exclusion NG 1)	292	44.3	76.8	–	–	–
CGCUAUGCCGAGGAUAUUCUUGGUAUGCAUCUAGGAGAAGGCGGCACAUGAGGAUCACCCAUGUCAAAACAUAU [Eternabot (L1) Solution 97] (Eterna round: R97, puzzle: Exclusion 6)	29	–	28.4	–	–	–
CGCUGGUGAGGAUAUGGGUGUUUUUACAUGAGGAUCACCCAUGUGGAGUAGCAUGUGGGUCCAGAAGGCGCGGGUG [-24.2, -22.5 kcal, 20% A] (Eterna round: R97, puzzle: Exclusion 5)	682	–	435	–	–	–
CGCUGUUGAGGAUAUGGGCGUGGGUACAUGAGGAUCACCCAUGUGUUGUCGCGCGUGGGUCUAGAAGGCGGCGGUG [-29.1, -27.2 kcal, 16% A] (Eterna round: R97, puzzle: Exclusion 5)	12.1	–	13.8	–	–	–
CGGAGCGUAGGUAGGUUCAACAUGAGGAUCACCCAUGUCUCACAAGCUUUUUGCUCAUCUUAUUGUACCUUGGUGCU [Sensor v3, turn-off variant 1 (MOD of JL )] (puzzle: Sensor v3, turn-off variant 1)	–	–	–	37.3	117	144
CGGGAGGGACAAGCUUUUUGCACGUCUGUUAUUGAUGCUACAUGAGGAUCACCCAUGUUUAGGGUGUGUGAGGAUGG [JR_SV3TOV2_Sub052] (puzzle: Sensor v3, turn-off variant 2)	–	–	–	239	437	571
CGGGCCCGGGCAGGAUAUGCGGCGGCCCGGGCCGGUGGGCCCGGGCCGACAUGAGGAUCACCCAUGUAGAAGGGCCCGGGCCCG [low energy, MS2 in another position, A 14%] (Eterna round: R96, puzzle: Exclusion NG 2)	15.7	10.7	16.1	–	–	–
CGGUGCUGAGGAUAUACAUGAGGAUCACCCAUGUGUUCUUGCUAGCGUACUGGCAGAUGUAGAAGGCGGUACUG [JL-ex3-3.45 Brourd mod] (puzzle: Exclusion 3)	–	–	–	19.7	99.7	22.7
CGGUGUAACGUAGGAUAUCAUCGCAACUGACGUUGAGAAGGACGACAUGAGGAUCACCCAUGUGAUUUCUCAAUAUUAUACAUC [Prohibition 85 - Jieux - Exclusion NG 1] (Eterna round: R96, puzzle: Exclusion NG 1)	69.6	20.4	19.6	–	–	–
CGUACUCAAGUGAGGAUAUUGUCUCGGAUACGAAACAAGAAGGCACAUGAGGAUCACCCAUGUAGAGAGUACGA [Malc #30 mod 1] (puzzle: Brourd's mod of Exclusion 4)	–	–	–	14.5	–	–
CGUCAACAUGAGGAUCACCCAUGUUAGGAUAUGGCGGUCCAUGGUUGGGACUAGACCGCCAGAAGGAGCAUGCG [Eternabot (L1) Solution 54] (Eterna round: R97, puzzle: Exclusion 1)	71.9	–	86.8	–	–	–
